Patent publication US20050013803A1 (published 2005)

How the values were obtained:
Experiment in all cases: co-immunoprecipitation with anti-Taz antibody from infected BMK cells, Western blot
[1] = molecular target: T1, polyoma virus middle T antigen, wild-type (murine polyoma virus)
T1 construct: also called mT

[2] = molecular target: T2, polyoma virus small T antigen, wild-type (murine polyoma virus)
T2 construct: also called sT

[3] = molecular target: T3, polyoma virus large T antigen, wild-type (strain PTA), full length (murine polyoma virus, strain PTA)
T3 construct: mature; also called normal large T antigen; WT large T antigen
T3 sequence (P0DOJ5 whole entry): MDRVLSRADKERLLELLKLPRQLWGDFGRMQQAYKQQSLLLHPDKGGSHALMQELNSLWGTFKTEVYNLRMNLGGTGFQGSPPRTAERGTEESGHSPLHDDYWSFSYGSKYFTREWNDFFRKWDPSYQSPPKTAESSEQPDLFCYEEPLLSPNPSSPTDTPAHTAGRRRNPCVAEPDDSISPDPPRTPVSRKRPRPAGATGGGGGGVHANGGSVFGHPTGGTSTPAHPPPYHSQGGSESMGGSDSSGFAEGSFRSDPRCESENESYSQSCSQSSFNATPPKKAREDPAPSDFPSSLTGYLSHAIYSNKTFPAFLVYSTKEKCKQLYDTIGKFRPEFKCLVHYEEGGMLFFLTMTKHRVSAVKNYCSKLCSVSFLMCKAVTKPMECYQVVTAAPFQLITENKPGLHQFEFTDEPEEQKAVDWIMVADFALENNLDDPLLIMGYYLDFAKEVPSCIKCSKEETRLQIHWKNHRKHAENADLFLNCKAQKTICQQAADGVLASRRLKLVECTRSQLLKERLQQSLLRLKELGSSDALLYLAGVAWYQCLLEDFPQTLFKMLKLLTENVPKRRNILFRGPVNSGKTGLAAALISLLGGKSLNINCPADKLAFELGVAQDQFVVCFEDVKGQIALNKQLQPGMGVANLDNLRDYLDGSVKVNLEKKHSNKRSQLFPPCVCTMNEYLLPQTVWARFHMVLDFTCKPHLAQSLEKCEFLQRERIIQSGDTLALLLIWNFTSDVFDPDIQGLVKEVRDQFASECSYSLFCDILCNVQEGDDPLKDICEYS

T1 sequence (P0DOJ8 whole entry): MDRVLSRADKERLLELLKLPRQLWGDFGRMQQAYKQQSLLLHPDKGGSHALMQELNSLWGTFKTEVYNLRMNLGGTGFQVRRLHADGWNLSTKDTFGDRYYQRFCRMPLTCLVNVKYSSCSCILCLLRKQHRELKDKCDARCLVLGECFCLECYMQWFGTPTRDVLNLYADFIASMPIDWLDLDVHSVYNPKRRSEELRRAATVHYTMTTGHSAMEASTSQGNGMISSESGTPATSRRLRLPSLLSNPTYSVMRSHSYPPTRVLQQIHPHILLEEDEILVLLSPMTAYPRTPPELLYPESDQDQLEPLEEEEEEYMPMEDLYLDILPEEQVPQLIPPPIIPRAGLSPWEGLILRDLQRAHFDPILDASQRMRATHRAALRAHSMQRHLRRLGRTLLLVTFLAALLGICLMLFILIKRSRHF
T2 sequence (P68834 whole entry): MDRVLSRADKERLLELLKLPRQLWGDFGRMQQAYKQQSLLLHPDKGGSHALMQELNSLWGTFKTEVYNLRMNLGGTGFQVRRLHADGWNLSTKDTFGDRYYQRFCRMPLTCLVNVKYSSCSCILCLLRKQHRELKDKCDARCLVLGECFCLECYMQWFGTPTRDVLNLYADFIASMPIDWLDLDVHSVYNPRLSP

B1: murine Taz (transcriptional co-activator with PDZ binding motif) (other, mouse, UniProt Q9EPK5 1-395, looked up)
chain: MNPSSVPHPLPPPGQQVIHVTQDLDTDLEALFNSVMNPKPSSWRKKILPESFFKEPDSGSHSRQSSTDSSGGHPGPRLAGGAQHVRSHSSPASLQLGTGAGAAGGPAQQHAHLRQQSYDVTDELPLPPGWEMTFTATGQRYFLNHIEKITTWQDPRKVMNQPLNHVNLHPSITSTSVPQRSMAVSQPNLAMNHQHQQVVATSLSPQNHPTQNQPTGLMSVPNALTTQQQQQQKLRLQRIQMERERIRMRQEELMRQEAALCRQLPMETETMAPVNTPAMSTDMRSVTNSSSDPFLNGGPYHSREQSTDSGLGLGCYSVPTTPEDFLSNMDEMDTGENSGQTPMTVNPQQTRFPDFLDCLPGTNVDLGTLESEDLIPLFNDVESALNKSEPFLTWL
notes: Endogenous protein immunoprecipitated from mouse cell extracts, or a library clone in yeast; also called mTaz
Q: How did the relative binding efficiency [1] turn out when B1 was run?
A: 7 ratio large T: middle T: small T

Q: What about the relative binding efficiency [2] of the same binder?
A: 100 ratio large T: middle T: small T

Q: What about the relative binding efficiency [3] of the same binder?
A: 1 ratio large T: middle T: small T
